Molecular target: LC3-trap Wx8 (covalently labelled with an N-hydroxysuccinimide (RED-NHS) dye in the MST)
Experiment: MST

B1: recombinant GABARAP (natural protein)
chain: MKFVYKEEHPFEKRRSEGEKIRKKYPDRVPVIVEKAPKARIGDLDKKKYLVPSDLTVGQFYFLIRKRIHLRAEDALFFFVNNVIPPTSATMGQLYQEHHEEDFFLYIAYSDESVYGL
Kd: 24.8 nM

B2: recombinant LC3C (natural protein)
chain: MPPPQKIPSVRPFKQRKSLAIRQEEVAGIRAKFPNKIPVVVERYPRETFLPPLDKTKFLVPQELTMTQFLSIIRSRMVLRATEAFYLLVNNKSLVSMSATMAEIYRDYKDEDGFVYMTYASQETFG
Kd: 3.4 nM
